The text below walks through data of patent US20020004485A1.

Square brackets hold non-standard residues; d marks the D form. Ends that are not written are not given here. * marks the point of attachment. Benzoyl(3-OMe) = COc1cccc(C(=O)*)c1; Benzoyl(4-OMe) = COc1ccc(C(=O)*)cc1

The target of test [1] is MC receptor endogenous to Xenopus laevis melanophores (Xenopus laevis). Description: cell-based or functional assay.
Test [2] has the same target. Description: Schild plot regression analysis, frog melanophores (functional).
Test [3] shares this target. Description: Schild regression; suppression of α-MSH-induced pigment dispersion in Xenopus melanophores (functional).
Test [4] has the same target. Description: Schild plot; antagonism of α-MSH pigment dispersion in Xenopus melanophores (functional).

B1: SQW-13 (peptide)
peptide: {Benzoyl(3-OMe)}-RRIRPKA-NH2
SMILES: CC[C@H](C)[C@H](NC(=O)[C@H](CCCNC(=N)N)NC(=O)[C@H](CCCNC(=N)N)NC(=O)c1cccc(OC)c1)C(=O)N[C@@H](CCCNC(=N)N)C(=O)N1CCC[C@H]1C(=O)N[C@@H](CCCCN)C(=O)N[C@@H](C)C(N)=O
In test [1], B1 displayed an MCR IC50 nM: antagonism of α-MSH (600 pM) darkening of frog melanophores of 62 nM.

B2: SQW-12 (peptide)
peptide: {Benzoyl(3-OMe)}-RRIRPAL-NH2
SMILES: CC[C@H](C)[C@H](NC(=O)[C@H](CCCNC(=N)N)NC(=O)[C@H](CCCNC(=N)N)NC(=O)c1cccc(OC)c1)C(=O)N[C@@H](CCCNC(=N)N)C(=O)N1CCC[C@H]1C(=O)N[C@@H](C)C(=O)N[C@@H](CC(C)C)C(N)=O
B2 yielded an MCR IC50 nM: antagonism of α-MSH (600 pM) darkening of frog melanophores in test [1] of 1600 nM.

B3: human agouti-related protein fragment ARP-(83-132)-NH2 (peptide)
peptide: SSRRCVRLHESCLGQQVPCCDPCATCYCRFFNAFCYCRKLGTAMNPCSRT-NH2
modifications: disulfide (positions not given here); not fully specified (bridges); also: five disulfides among the 10 Cys, arrangement undetermined
The term Ki denotes the equilibrium dissociation constant of an inhibitor or competing ligand from its target. A low value points to tighter binding. For the molecule B3, in test [1], the EC50 of α-MSH in frog melanophores in the presence of 30 nM ARP fragment was found to be 19 nM. For the same molecule, the Ki in test [2] worked out at 0.21 nM; in test [3], 0.7 nM.
Usually pKi stands for the negative decadic logarithm of the Ki, by convention in mol/L. A low value points to a high Ki. Consider {Benzoyl(4-OMe)}-RRIRPK[dL]-NH2 [p-anisoyl-[D-Leu^12] dynorphin A(6-12)-NH2], for which, in test [1], the MCR IC50 nM: antagonism of α-MSH (600 pM) darkening of frog melanophores is 29 nM. In test [4], the Ki was 27 nM and the pKi was 7.57.
